Test results: a protein production outcome set (Wang et al. 2014)

Assay: label from the status in PepcDB records
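Further: failed if final PepcDB status was selected cloned or expressed and not failed if soluble or beyond.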

Sequence	protein production
MSLDLPEGHPLKTLYQENKEIMKDAEMLNLYAKTLATTKDERMREEILGVLEEIVSSLRMVGFTHYNREEMLIFPYIERRGLTVIATVLWTKHDEIRAMIKQLAELLRKREEMPWEEFVEKFKAKAGEVAFALSDMVFRENNIFYPTLKALLSEGEWKAIKMQEDEIGYYKVKPPEWDPGEDVKPLHPWEINPELNVEQLLTLPKEVQQALRGQPLEFDKTQLKREEDIDLGTGYLNIEELKAIFEALPVDVTFIDKDDRVRFFSPGERIFTRTPSVLGRPVQLCHPPKSVYVVNKILKAFKEGRKKEATFWLRLREKYVYIKYVPLFNEKGEYIGTLEMTMDIAPYKKIEGEKRLLDWRDEGHITITTDPNSSSVDKLAAALEHHHHHH	not failed
MDASDDSLIGRITEVRAGRFAARLLSDEEGFRNEVSLGDEVQHPGQVGTYVSIRNGTFRILALVREVSGGAAGSAAGSAMQLVPLGEFNDKGAFSRGVRRYPVPGAEVHAASPQEINAVFARTRNLRFNPGYLPNHPATGVYLDPSALCSRHFAILGQSGAGKSWTVASLLQRMLASAPRAHIILLDLHGEYCWRGADGVLHSTFPPMATRAMDARELEIPYWLMSFAELVDLLIERDDPAASIQTAFLRETVFELKRRSARELGLEGVSIDAPVYFSLQEVYERFKEANEHRTDFGKTKGPLFGQFDDFLLKLGSRLHDVRYDFLLNPARRTRSESLPDLLRDFVGLGEPRCQISVIDLSPVPFDVRPTVSAQIGRLAFEFNYWNLDRREFPILLVCEEAHTYIPRERATQYEGTRKSMERIAKEGRKYGVGLAVVSQRPHELSETVLSQCGSYICLRISNPDDQAYVRKLVPEGEADLVDVLTALGRGEALILGEATPLPVRCQIFRPDPPPNSNDVDFHKAWNADTANLDIGAIVRRWWNQGR	failed
MAVRIVDDLQQLSLLLMFLSTFIFYRYLKKVKRERKLTGFEWTMYFVTQFATLIWAITYFIKHLAES	failed
MAFRYEHQEPGSRVISGGRDHSNRLLERLGFTVIDGRPTTVEGERAWRLAVWSHLQLTEDLSQVPPGVLRAFGVYGGGQGIWMDKARTDAVHEGGITMGVLHTGAHYPDEISDNDVIYHYPTTGRGPGRDESEVAATKAAATLKLPIFVIAKPTPRSSVRIVRLAWVEGWEERSRIFLISFGDSRPEHLLTEDHSDNQPFSLTGNRSRSSRRNVRERPGQRRFKLRVFQRYGPRCPLSGIAVPEMIEAAHLRPDAEDGTDDPRNGLPLNAALHRAYDAYLFAIEPETLSVVTRPQGPTIEELGIFTPHLRELPRRPHTEALRWRYREWQLRIGTQG	failed
MIKVLDQNTINKIAAGEVIEKPSSVIKELVENSIDSGATAITVEVKGSGLSFLRVTDNGSGIKKDEVKLAFLRHATSKLVTVEDLLSISSLGFRGEALASIASVAQVEMITKTADDVTGLRYQIHGGREISSEEIGAPGGTTIIVRNLFYNTPARKKFMKTDLTEISYIYDLMCRICMSHPKISFKFISNGTDKLFTSGNGKLRDIIYHIYGRDITSNLLEINAENDYMKISGYIARPCISRGNRSFEGYYVNHRYIKSAVLTKAIEDAFRTFVMIHKFPFTEINFQVRPDLLDVNVHPTKMELKFANSQDIYSFTYNAIRETLLFKELIPDVAPGKDSKPETYKQRNVGDAPEAFENKRREALVGPVAQAKAAPTHMVTDNSLVKSENAPVLDQRQMKPERASTSESQARPEGTSTALQQPLKPDNIPAPVRPIIDVIDETKDTNTSAEKKSDNNTYEQPQKSGYSYSGRHQEIPGSKVAESKASYMAVDDRKYVQQNMFQEKFLTKEARAKHRLIGQLFKTYWLIEYDGKFFIMDQHAAHEKVKYEELMENYKNKKIYSQYLMPPAVVTLSATEIEFLHENMETFEALGYQIENFGGREFKLNAVPDNLFGLDGRELFIDFIADASSSAKKVTIDVFIHKLSTMACKAAIKGNTEISFKEADALIDQLLKLENPYTCPHGRPTVISMTEAEIEKKFKRIV	failed
MWEPACKNRTRTLAGLAPLLASIQSPSPPSVVLRLDPSTRTQALCPHPATARGNPMSRIFITGSTDGLGLAAARTLISQGHDVVLHARSRQRAAAIADTSAAALSLVIGDLASAAETRSIADQVNAFGRMDAVIHNAGIYLERSRGETPEGHAKTLAVNVLAPYLLTAWITRPDRLIYLSSGMHRSGASTLDDIDWKRRPWNASQAYSESKLYIATLAALARHWPDALSNAVDPGWVPTKMGGAGAPDDLEMGHLTQTWLATSDEGAAKVSGGYWYHRQRREAAAEVGDVGFQEALVGRLAELTGVRLFAERG	failed
MDHKKVAERVIKDVGRDNIIAGAHCATRLRLVLKDDSKVDQKALDNDPDVKGTFKTNGQYQVIIGPGDVNDVYDEFIKITGLKELSTDDLKKVAAEGQKKNPIMDFIKLLSDIFVPIIPALVAGGLLMALNNFLTSPGLFGPKSVVQMAPNVAGISSMIQVMSAAPFIFMPILVGMSAAKRFGANQFLGATIGMIMTTPGLGGATKFWDIFGLHVAQTNYQYQVIPVLVAVWVLSIFEKYFHKHLPSAVDFTFTPLLSIMITGFLTFTIIGPVFKGVSDAITNAIVWLYDTTGAFGMGVFGLSYSAIVTTGLHQSFPAVETQLLAAFAKNPASSGDFIFVTACMANVAQGAATFAVYFLTKNKKMKGLASSSGVSALLGITEPALFGVNLKYKFPFFCALIGSGVAAAFAGLMHVTAAALGSAGFLGFLSIYPRTIPMWVVSVAISFAVSFILTYVYGKSHLKEEVAEQDVPVNDATDYAEETQKAEKIGKEQLALKDEIIYSPVDGTPESLTKVNDQVFSAKLMGDGAAVIPSDGTIYAPVTGTVTIAYETKHAYGIKSDDGAEVLIHIGLDTVNLKGEHFESFVKQGQRVEKGDKLGSVDLDAVKKAGYDTTVMVVITNTANYANVQRITDAGDKHGDKLIAVTAHE	failed
MGHSGREERIKDIFKELTSKELTPGLLLTLQKLAQKPNTNLEQFIASCKALTKLSSNNPIIFNELLELLKNKSEEDSTGPKKIAPSINKRKKFKIQLDLDDNEDELDSPVQKKPAPTRTLFKRIDKLKAKQLRQYSPTVKDPSPNSEQQTQNGHAETKDYEPTRSEVVEEDREWYDNDDDYGNLVPEPLSELPEEAKLLPVIRNIDNDDALRNTVQLYPIPLKQRMEWIPPFLSKFALENKVPTSIIIGSISETSSQVSALSMVNPFRNPDSEFSANAKRGSKLVALRRINMEHIQQSRDNTTVLNTAMGEVLGLENNNKAKDKSNQKICDDTALFTPSKDDIKHTKEQLPVFRCRSQLLSLIRENQVVVIIGETGSGKTTQLAQYLYEEGYANDRGKSIVVTQPRRVAAISVAKRVAMEMQVPLGKEVGYSIRFEDVTDSECTKLKFVTDGILLRETLLDDTLDKYSCVIIDEAHERSLNTDILLGFFKILLARRRDLKLIITSATMNAKKFSAFFGNAPQFTIPGRTFPVQTIYTSNPVQDYVEAAVSQAVKIHLANDCSSGDILIFMTGQEDIETTFDTLQEKFLQVYSKKFGTANFEEINDIEILPIYSALPADLQFKIFQDLHGTKRKIIIATNIAETSLTIKGIRYVIDCGYSKLKVYNPKIGLDSLVITPISKANADQRSGRAGRTAPGTAYRLYTEDTFKEDMYLQTIPEIQRTNLSNTLLLLKSLDVTDELSKFPFIDKPPLQTFLSSLYELWFIGAIDTSGQLTPLGLQMAKFPLQPSLSKILLIAVRNGCSDEMLTIVSMLSVPQVFYRPKERQKEADIARNKFFIAKSDHLTLLNVFEQWRANNFSSHWCNKHFVQYKSLVRARDIRDQLLTILKSQKIPVISSGKDWDIIKKCICSGFAHQAAKITGLRNYVHLKTGVSVQLHPTSALHGLGDLPPYVVYHELLMTSKEYICCVTSVDPFWLMEYGGLLYDIKRIKNDQEATTTGLFGEHYEHTLDKVEDDIDINIRRCKDMRDSVIQELKMTDNSNKEDKKQKTKKQNILNGKENSMKPFKRRKPFF	failed
MKQKRLTFLLLLISNLFCASAQKWYKPEIDLKVEELLSQMTVEEKLGYIGGIDWMYTKSIDRLGIHRMRMSDGPQGIGTKGKSTAYPATVTLAATWNENLAYQYGKALGRDCRARNINVILGPAVNIYRAPMCGRNFEYMGEDPYLTSRICVGYIKGVQDQGVMATVKHFVANNSDYDRNNISNDIDERTLNEIYFPAYKAAIQEAEVGAIMTSYNLMNGIYTTENPWLLKEVLRNQWGFKGLVMSDWGSTHYCVPAARSGLDLEMAGGEKMNPKDMAYYLKTGDVTMDMVDEKVRHILRILIAFGFKDGTEADKSIALDDPQSVETA	failed
SSCGNDESDPDSTVTIAMATVEKQPQYDAPYLVLDNGEKLWVVQHIVPYRDLKAGERIFGNYSFLEAGESGFAYNIRLNDYTLVPVQKIIGLNPDNMDSIGNMKVQIKDMWPSDDYLNVRFMLNFPSPQKPILNLVVNEMIPWTKDGYAHLELRYNNNGSQGRLVPGMVSFKLDDYSPENSELKGIKVLVNPVDGEEKTYIFSYPLTGEDVPGFNPLDLAELK	not failed
MKFSRFRDSKLFFWTIEILAVVAILFVLLQMKYIFSPIGIIVSTLFMPILVAGFLFYLFNPLVLFLEKRKVPRLLSVIVIFIAFITLVVLAVMQLGPTLADQVAELAKAIPGYWQDFEKWLQGLSNNSALKDIDMKQELEKLNISLPKIMSVVVDGVASSFGAIVSFVSSFVMILVTVPFIVFYMFKDGHKFVESSGKFFPAGIRSEAKQIIKEMNKTISTYISSQAIDCMFVGLFTFIGYLIIGQPYALLFGFIAGATNIIPYLGPFIGAAPAVIVALFTSPVQALLVIVVVTIVQQIDSNLLSPYIMGKSLSIHPLTIIIILIVAGNLAGIFGMILGVPLYAVVKTIIVNVNRLIKLRRGQLAIDNNLPNPDTPKK	not failed
MINARGETMARFTVVIPYYQKQHGVLGRALASVFAQTYQDFDLVIVDDESPYPIDQELAEISQEQKDRIVVIKQANAGPGGARNTGLDHVPDGTDYVAFLDSDDMWTPDHLRNAAFALNTYGGECYWASMQASDEFYYHFAISELEKNEGAARLSEKPLVIELPDLASVMLRNWSFLHLSCMVIGRPLFEKIRFDPALRLAAEDVLFFCDSILASKRTLLCDDAGAMRGMGVNIFHSIDNTSPEFLRQQFNTWVALDTLEGRFSRRPADVASIASYKNTARKQALWSQAGNLKRRRAPQFGLLFKWAMRDPALLRAAFELGAGKIVRSRLEHHHHHH	failed
WYEDGLVCTLAYQNHRAPLVFIIAGTGASHNTPRMVKLRSALYQGGFHVISLTSPTHMDFVVNASSGLPGDPLDDARDLYRVMEMAYDAVRDTIDVSGFDLAGYSLGAFNAAFVARLDEEEKRFNFSKVLLINPPVSLYESVAALDQLLVENVPQGMEQFDAWFRSVFAEFSHVSREVGPGSLSGDFIYSAYKRFPPNEENLAALIGLSFRMSAANMIFTADVMNGGGYIVPRNARLTATSSLTRYATVSLHTRFTDYFDEWFFPNRRHREPSLTRQALLARMSLRSQEAYLRNADKVGLIHNEDDIILAPGDIDYLQGVFGGRARLFPTGGHMGNMFHPDVVSFMIDFL	failed
MARRSICEERRQQAGAGQPRGRCSDWQRRQRTLRPDATPMPADGRPRCSCLFSLLLSDPDLWKSWMSSQTAAERELAELLVESLNLEDVQPADIDPEAPLFNTGLGLDSIDALELALAISKRYGFQLRSDNDENRRIFASLRALSAHVQANKTV	failed
MMTTLQILFWLSLFLVFYTHLGYGILLYMLVKLKELFVKPVRRQLPPDKRLPDVTLFITAFNEEEVVDEKMRNCLGLDYPADKLHIVWTTDGSNDSTNQRLEDWPQATVHFQPLRQGKTAAMTRGMMLVDTPLVVFTDANTMLNREAIREIVRAFEDPKVGCVAGEKRIAVQEKDGAAAGGEGIYWKYESTLKALDARLYSAVGAAGELFAVRRELFTVMEPDTLLDDFILSLRIAMQGYKIAYCTQAYAIESGSADIREEQKRKVRIAAGGLQSIWRLRELLNPFRYGVLTFQYVSHRVLRWSLAPVLLFALLPLNIAILLAGGSPVCYGTILALQLLFYIMGGWGYYLSTRQVKNKLLFIPYYFLFMNINVMKGVNYLRKKKGTGAWEKAKRTKTESLNQ	failed
MDPLLLIGAITAGGVLIGGGVHFVPVGGAPAAMATATGVGTGTAMLAAGAGLTGLITAAAMTGQSPLMIMAAGAVGSMLMIGITMLVGNLIYVYGVGTVPVSAKVAVDPLTGMEQEKYVTPGTEGHGLPTVCFVSGIIGGALGGIGGGLIYWALNEALKTLSYGAIGAAGVAAIFAVGIFFINAVIASYNIGGTIEGFHDPKFKRIGRGIVACLIASIVAGALSTLLVYGGVF	failed
